Laboratory results from paper PMC10679507.

Experiments:
Experiment in all cases: UV-vis
Conditions in all cases: room temperature; 0.4 M NaCl; 6-mix buffer (citric acid 5.48 mM; ADA 1.84 mM; MOPS 4.16 mM; TAPS 5.00 mM; CHES 3.24 mM; CAPS 5.56 mM); dark (unphotolyzed) state, lipid-reconstituted
[1] = target: Asp115 (UniProt position 115, LNWLIDVPMLL)
[2] = target: Asp250 (UniProt position 250, TYTIADVSSKV)
[3] = target: Glu10 (UniProt position 10, GNATFENYIGL)

| Substance | pKa [1] | pKa [2] | pKa [3] |
| --- | --- | --- | --- |
| Sodium pump rhodopsin IaNaR E10Q/R242Q (Indibacter alkaliphilus; E10Q;R242Q) | 5.7 | 3.8 |  |
| Sodium pump rhodopsin IaNaR (Indibacter alkaliphilus) | 5.5 | 3.2 | 4.1 |
| Sodium pump rhodopsin IaNaR E159Q (Indibacter alkaliphilus; E159Q) |  | 3.1 | 3.7 |
| Sodium pump rhodopsin IaNaR E10Q/E159Q/R242Q (Indibacter alkaliphilus; E10Q;E159Q;R242Q) | 7.1 | 3.6 |  |
| Sodium pump rhodopsin IaNaR H225A (Indibacter alkaliphilus; H225A) | 5.8 | 3.0 | 4.3 |
| Sodium pump rhodopsin IaNaR D250N (Indibacter alkaliphilus; D250N) | 5.0 |  | 2.8 |
| Sodium pump rhodopsin IaNaR E159A (Indibacter alkaliphilus; E159A) | 5.6 | 3.3 |  |
| Sodium pump rhodopsin IaNaR D115N (Indibacter alkaliphilus; D115N) |  | 2.5 | 4.6 |
| Sodium pump rhodopsin IaNaR R242Q (Indibacter alkaliphilus; R242Q) | 6.4 |  | 4.4 |
